# Measurements as given in publication PMC8313286.
# Key:
# [1] = target: RepA, putative replicase of megaplasmid pMP7017 (Bifidobacterium breve JCM7017 (megaplasmid pMP7017)); assay: SEC-MALS
# [2] = target: RepB, replication initiator of megaplasmid pMP7017 (Bifidobacterium breve JCM7017 (megaplasmid pMP7017)); assay: SEC-MALS
Substance,percent of total protein in the dimer peak [1],percent of total protein in the presumed octamer peak [1],percent of total protein in the presumed tetramer peak [1],percent of total sample in the dimer peak [2],stoichiometry N [2]
"RepA, putative replicase of megaplasmid pMP7017 (natural protein)",67.3%,15.7%,17%,–,–
"RepB, replication initiator of megaplasmid pMP7017 (natural protein)",–,–,–,97%,2
